A protein production outcome set (Wang et al. 2014)

assay: label from the status in PepcDB records

Sequence | protein production
TLGKETKTTVHKFGLEPPSELIQKQLRANLDDDIWEVIRSRKIDGEHVILDKDYFFRKHVPHLTKEICENSIYEYIEGELGLSISYAQKEIVAEPCTDEDRELLDLRGYDHMVVVRNYVFLEDTSLFQYTESRHRLDKFRFVDFARRGK | not failed
TNPQAVIGDSPTTSATQSKAVVVEFSDFQCPYCAKAHDTLKQLLAKHPGEITLVYKHLPLIPIHNEAMPAAKAAWAATQQGKFWEYHDALFSNQKQLGEALYLDIAKKLNLDLEKFNSDRLLADAAISKDIQIAQKLAIAGTPFFIMNSKTFSGGIDLSEIENKL | failed
TPLLAILFIAQVSGSGRRVGVVGWPDLNYAGVLGYGGCYERIFAVPQQERTSLRVVTALAHGCDLVITRAGPTPRTYTPLQTQRFRNSLRSDAGCVIMMGDHVVSPAARLASAVVGYHGIGKGTGRIKAVEITVTGIAKGFYRTSRVIVGKHIAPAAEKTTMK | failed
TRRIMQLVFTDVTKHKEYEETLRKEQQVVQDILDFQSSIVLVAGSDEGVLSANRSALDFFGFRDVKEFRMHYRCICEAFIDREGFLKNRHEAWLHEALLANQTGRDSKAIIKDRHSGEERIFVVKVGRYPRDSHKFIVSLTD | failed
TSKQRYSGKVHLCVARYSYNPFDGPNENPEAELPLTAGKYLYVYGDMDEDGFYEGELLDGQRGLVPSNFVDFVQDNESRLAST | not failed
TSVKEFAMKHDHFVVQSPDKPAQQLLLLFHGVGDNPVAMGEIGSWFAPLFPDALVVSVGGAEPSGNPAGRQWFSVQGITEDNRQARVDAIMPTFIETVRYWQKQSGVGANATALIGFSQGAIMALESIKAEPGLASRVIAFNGRYASLPETASTATTIHLIHGGEDPVIDLAHAVAAQEALISAGGDVTLDIVEDLGHAIDNRSMQLALDHLRYTIPKHY | failed
TVASRLSDTKAAGEVKALDDFYKMLQHEPDRAFYGLKQVEKANEAMAIDTLLISDELFRHQDVATRSRYVRLVDSVKENAGTVRIFSSLHVSGEQLSQLTGVAAILRFPVP | not failed
TVDLNMQRRAEETVQKAFQQARSRGLRADQIAVAAVDPRTHFVKVLVGGRDYEESQFNRAIQSQRQPGSAFKPFVYYSAFASGNYTPFSTIDDSPVSYPDGNGTYSPQNYGGSFSGTVSLYDALVTSKNVPAVKLGKAVGLEKVIELCRLLGIESPLQPVISLPLGAVGISPLEMASAYATFASNGWQSETTLILRVTDSQGNVLLDNTPQPRLVLDPWATASLTTVLQGVVNGGTGQAANLGDRPAAGKTGTTSSERDVWFVGYVPQLAAAVWIGNDDYRPMGTGTTGGGDAAPIWRAFMQEALKGEEPQYF | failed
TYWDVDFPRLDQRDSTLTEADHIANVRAALLEAVEMRMVADVPVGCYLSGGIDSCSILGLASAVSQGPVKAFTIGFDDARYDETPIAAEMAEATGAEQDVMRLSGRELYGHMEQTLWHTERTIYNTLAVAKYLMSRHVNSVDYKVVMTGEGSDELFGGYPAFRRDMFLHGLEDLPQSDRQDWESLLQTNNSLVQGAMLAADQVDDPDLDAVVGFTPSCLQPWLACAPLVPDLLADEHRQALVEYSPGKAIAEQLNPQQLDGRHALDKAQYVWIKTMLEGQILTWGGDRVDMANSMEARPAFLDHHLAAAAVQVPPELRIKGKTEKYVLREAMAGLLPEVLYKREKFAFMAPPAHTEPEKWAQMKQLADDYLSDEAIDAAGLLSKEGVRALFARHDDPATTDAERVQMDAVINHLLG | failed
VAGKVEARKAALREKLIDLAEAQIEAEGLASLRARELARQADCAVGAIYTHFQDLNALTLEVNGRTFARLGAAVGAVVADGQDDHPNERLIAMSHAYLAFAREHPKLWRALFDVEMRSDGPVPQWYGHAMAQLFSYITTPLAKIFPESDDAELDLMTRTLFSSVHGIVLLGLENRISGVPGEQLKTMIRLLLEQVGR | not failed
VAITDNRGVITHVNEKFCDISQYEYYELVGTTHKIINSGFHPRSFFKQMWKTIAQGNIWKGEICNRTKQGKLYWVDTTIVPLKDNDGLLKNYISIRTDITQ | failed
VFEQELENGLRLFIIPKPGFQKTFVTYTTQFGSLDNQFKPLGQDQFVTVPDGVAHFLEHKLFEKEEEDLFTAFAEDNAQANAFTSFDRTSYLFSATDNIENNIKRLLTMVETPYFTKETVDKEKGIIAEEIKMYQEQPGYKLMFNTLRAMYQRHPIRVDIAGSVESIYDITKDDLYLCYETFYHPSNMVLFVVGDVNPEEICRIVKQH | failed
VINQVESASKVIDWPLALKRSANKADLAKEMLLGLVESLPETQLSIREAIDVQDIAQIKRLVHKLNGACCYTGTPNLAKITIQLETQLKMGLSTEELEPEFLEFFEHIEQVLFAVPEALKEMSEN | failed
VIRDLQKLLASMEPSLNPGTYAFVVAPADIQIPQDQIVASVCEPEGQSLVIPEQLAHERGLPVTYSAAWITLTVHSDLAAVGLTATFAGALGQAGISCNVIAGVHHDHLFVPADQAQQAMAVLFDLQRAAA | failed
VKLVEEYIAANWNESLTIEKLVELTGMSARTVFKAFQRTRGYSPMAFAKRVRMERVRQLLLEAGGDASVGAIAVQCGFPHLGHFAKDYRKTFGENPSDTLARGRRFRGVR | not failed
VKMSDKWIEIEEILSGLIGDLTIAVTVLKDYEGKAFLREPQHQTKRQCIWRLCVYSIVINCRKYVELNQKYGKEFQALIPGHNHIRGVYNNEINKNTAIKKLRNHCVAHVSDKSKYLKPAEVQEEIIKMFDGNFADEFLDWICPDNISTTDKSESLVGVIELLRDAVSAKL | not failed
VLEVTQKATPNPSLLAAEDQVPCEKCGSLVPVWDMPEHMDYHFALELQKSFLQPHSSNPQVVSAVSHQGKRNPKSPLACTNKRPRPEGMQTLESFFKPLTH | failed

Sequence | protein production
VLTMPLVTSISQLNEPITLVSYTMGNVNGVPVNNVRKEHFTTWALVLSQYLSEVKASVGTKLEDTVTFVVRYDQPETILNSWRIEWQEKQYDIVKLTPDTAKKQWTTIIGKPVANK | not failed
VPRIAEVRDAAEPSSEEQRARHVRMLEAAIELATEKELARVQMHEVAKRAGVAIGTLYRYFPSKTHLFVAVMVDQIDRMGVGFKKSAPPGESPQDAVYNVLVRATRGLLRRPALSTAMIQSTSTANVASVPDAGKVDRAFRQIMLDAAGIEHPTEEDLTALRLLVQLWFGVIQSCLNGRVSIPDAESDIRRACDLLLVNLSHR | not failed
VQSKNPVLIEGFPGIGLVGNIASQHIIEELNMEYIGSIDSRYFPSIAVLYEGLINMPVRIYENVEHNLIIVISDIPISHSVSYDVSNALVDWAEAINVKEIASIAGIAIMDGGHKVFGAATTPEMLDKIRDKVEIFQMGTISGISGSVMAECLLRGIPAISLLGATRTQNPDPRAASSVIGVLNELYGLSISTDRLIEQAERIEIELQRLAEDVQATERKGEVKKEFPMYG | failed
VRLRNLVESDRERLLIWRNSPDVSAYMYSDHKIGHEEHDHWFDVARHDPRRRYWIIEADGEPVGLANLADIDLVHRRCAWAYYLASPKVRGLGVGSFVEFQIIEYVFNQLHLNKLWCEVLISNESVWRLHELYGFQREALFRQHVMKQGHEVDVIGLGLLASDWAARR | failed
VTGDRAGGRSWCLRRVGMSAGWLLLEDGCEVTVGRGFGVTYQLVSKICPLMISRNHCVLKQNPEGQWTIMDNKSLNGVWLNRARLEPLRVYSIHQGDYIQLGVPLENKENAEYEYEVTEEDWETIYPCLSPK | not failed
VTGSIRSKLSAIDVRQLGTVDYRTAWQLQRELADARVAGGADTLLLLEHPAVYTAGRRTETHERPIDGTPVVDTDRGGKITWHGPGQLVGYPIIGLAEPLDVVNYVRRLEESLIQVCADLGLHAGRVDGRSGVWLPGRPARKVAAIGVRVSRATTLHGFALNCDCDLAAFTAIVPCGISDAAVTSLSAELGRTVTVDEVRATVAAAVCAALDGVLPVGDRVPSHAVPSPL | not failed
VTRAIILAHGYATASSIANVANRLLKSQLFESFDMPLDVTPEAIANQVMAYIESHALASGLIILVDMGSLNAIHRHFNRRLSTPMAIINNVSTGMAMYVGERILQGVMLEDIVREIGDDLAVEHQLYYPQTDKP | failed
VVEFTTCPDKPGIPVKPSVKGKIHSHSFKITWDPPKDNGGATINKYVVEMAEGSNGNKWEMIYSGATREHLCDRLNPGCFYRLRVYCISDGGQSAVSESLLVQTPAV | not failed
VVENYETQFVTFVESEMEQDLAHDLNHVFRVVKTAKLLSKIEGAMLEVVLPAAYLHDCFSFPKNHPNKAESSRIAADKALEFLNEIGYPNEYHDAIKHAIIAHSFSAKVQPDTLEAKVVQDADRLDALGAIGIARCIQVSTNLGVGLYDATDPFCGTREPNDRVNTVDHFYTKLFKLPEIMHTASAKVEAEKRMKFMKAYLIQLGMEIEPYS | failed
VWWQLHYGPHPDERELDLEGWTTRVLDATRDAVAIRQRAAVDVGVLLSGGVDSSLLVGLLREVGVDDLSTFSIGFEDAGGERGDEFQYSDLIAKHYGTRHHQLRIAEHEIIDQLPAAFRAMSEPMVSHDCIAFYLLSREVAKHCKGVQSGQGADELFAGYHWYPQVDGADDAYAAYREAFFDRSHAEYRDTVQAPWLLETDAAGDFVREHFARPGAPAAVDKALRLDSTVMLVDDPVKRVDNMTMAWGLEARTPFLDYRLVELSARIPARFKLPDGGKQVLKQAARRVIPHEVIDRKKGYFPVPGLKHLEGATLGWVRELLTDPSQDRGLFNPTMLDRLLSNPHGQLTPLRGSKLWQLAALNLWLS | failed
WLDDGKNGGQLGSVEASAVYRNTQVFGEAAYATEPGALSWICGVQSDLAKGITGVVSMRDYAFEYYSPFAGAFAERGDNASNESGLYLGLKAKVRDNLTLAGLYDRFRFPVLDKRYYVYPSSGYEARFYATWKQNRWMTWDAMYQHKEKEEAKKQFDSNIGTSRYIPVPKITNRVQLGLVVECSPGITLKSRAAFKSLRSHFVTGAESEEGWLLYQQINLKRGPFTLKTRLARFDTDSYDVALYAYEDDLPLVYMLNAYYGRGKAWFIVLDFEPVKNFNLTAKYETTWYDDRDVYSSGNDLRNTSSPGSYHVGCMLKF | failed
WQGLSSKGDLPQVEITKAFFAKQADEVTLQQADVVLVLQQEDGWLYGERLRDGETGWFPEDFARFI | not failed
WYEDGLVCTLAYQNHRAPLVFIIAGTGASHNTPRMVKLRSALYQGGFHVISLTSPTHMDFVVNASSGLPGDPLDDARDLYRVMEMAYDAVRDTIDVSGFDLAGYSLGAFNAAFVARLDEEEKRFNFSKVLLINPPVSLYESVAALDQLLVENVPQGMEQFDAWFRSVFAEFSHVSREVGPGSLSGDFIYSAYKRFPPNEENLAALIGLSFRMSAANMIFTADVMNGGGYIVPRNARLTATSSLTRYATVSLHTRFTDYFDEWFFPNRRHREPSLTRQALLARMSLRSQEAYLRNADKVGLIHNEDDIILAPGDIDYLQGVFGGRARLFPTGGHMGNMFHPDVVSFMIDFL | failed
YAVQICKGMDYLGSRQYVHRDLAARNVLVESEHQVKIGDFGLTKAIETDKEYYTVKDDRDSPVFWYAPECLMQSKFYIASDVWSFGVTLHELLTYCDSDSSPMALFLKMIGPTHGQMTVTRLVNTLKEGKRLPCPPNCPDEVYQLMRKCWEFQPSNRTSFQNLIEGFEALLK | failed
YDAILLIDYRQRRIIDCNQTAQKLLGYSKEELRLLPPYRLLRAMSARSIKPIFQDILAKRREIHDITLLSQSGEQLLGQLSFNTLQEED | failed
YKELDVHLRRMESGFGFRILGGDEPGQPILIGAVIAMGSADRDGRLHPGDELVYVDGIPVAGKTHRYVIDLMHHAARNGQVNLTVRRKVL | not failed
YLIKFDRIAVPMAEGRSSRRVLHIAFAFASAMGSEITAITVRDQAKDITWTNKITVVTNAYKEGLSQNIKVVPKILTSSDVKSALVEELNRHSYDIVIIASEKRSIITRITSGPVSNYVIKKSNIPTALV | failed
